In patent US20170189519A1 one finds Mw of trimer protein complex with CRF6261, Kd and CR6261 binding AlphaLISA (counts) data, which are given here for 2 molecules.

What all share (settings): remark: other sources report otherwise
Experiment [1] has as its target s127H1-t2-cl18long. Kind of experiment: SEC-MALS of trimer with Fab fragments; value in brackets is the theoretical one.
In experiment [2] the target is s127H1-t2-cl18long. Kind of experiment: Kd app from steady state Octet (biolayer interferometry), antibody immobilized.
In experiment [3] the target is UFV150135 (influenza A virus H1 A/California/07/2009).
Experiment [4] addresses UFV150125 (influenza A virus H1 A/Brisbane/59/2007).
Experiment [5] has as its target UFV150124 (influenza A virus H1 A/Brisbane/59/2007).
In experiment [6] the target is UFV150134 (influenza A virus H1 A/California/07/2009).

B1: Fab fragment of CR6261 (Fab, V domains shown)
VH: EVQLVESGAEVKKPGSSVKVSCKASGGPFRSYAISWVRQAPGQGPEWMGGIIPIFGTTKYAPKFQGRVTITADDFAGTVYMELSSLRSEDTAMYYCAKHMGYQVRETMDVWGKGTTVTVSS
VL: QSVLTQPPSVSAAPGQKVTISCSGSSSNIGNDYVSWYQQLPGTAPKLLIYDNNKRPSGIPDRFSGSKSGTSATLGITGLQTGDEANYYCATWDRRPTAYVVFGGGTKLTVLG
As to B1, in the experiment with s127H1-t2-cl18long [1], the Mw of trimer protein complex with CRF6261 came to 216 kDa.

B2: CR6261 (antibody, V domains shown)
VH: B1 VH
VL: B1 VL
B2 had a Kd with s127H1-t2-cl18long [2] of 500 pM. Further, the CR6261 binding AlphaLISA (counts) in experiment [3] is 625000 counts; in experiment [4], 475000 counts; in experiment [5] it was 572000 counts; in experiment [6], 587000 counts.
